From patent publication US6713443B1, “Compounds which modify serotoninergic transmission, diagnostic and therapeutic applications” (Institut Pasteur, priority 1993, dated 2004)
No end group written: not given here.

What was measured:
5-HT1B/D receptors [1] = experiment: Relative activity at 1 nM, [125I]cyanopindolol binding; conditions: 1 nM peptide or amino acid, 0.3 nM [125I]cyanopindolol
Method: (§1) The binding experiments were performed as described above. […] Each value corresponds to the mean ± the standard deviation of three independent tests performed in quintuplicate.

5-HT1B/D receptors [2] = experiment: Relative activity at 1 nM, [3H]5-HT binding; conditions: 1 nM peptide or amino acid, 30 nM [3H]5-HT
Method: as §1

mouse = experiment: Forced swimming test (Porsolt); assay type: in vivo; conditions: reference antidepressants
Source text: The forced swimming test (Porsolt) is a simple test which cannot, under any circumstances, be assimilated with a model of “depression”.

5-HT1B/1D receptors [3] = experiment: inhibition of 30 nM [3H]5-HT binding, 1 nM peptide
[4] = target: T1, 5-HT1B receptor of rat brain (rat, UniProt P28564 1-386); experiment: inhibition of 0.3 nM [125I]cyanopindolol binding, 1 nM peptide
T1 construct: whole, on cells
T1 sequence (P28564 whole entry): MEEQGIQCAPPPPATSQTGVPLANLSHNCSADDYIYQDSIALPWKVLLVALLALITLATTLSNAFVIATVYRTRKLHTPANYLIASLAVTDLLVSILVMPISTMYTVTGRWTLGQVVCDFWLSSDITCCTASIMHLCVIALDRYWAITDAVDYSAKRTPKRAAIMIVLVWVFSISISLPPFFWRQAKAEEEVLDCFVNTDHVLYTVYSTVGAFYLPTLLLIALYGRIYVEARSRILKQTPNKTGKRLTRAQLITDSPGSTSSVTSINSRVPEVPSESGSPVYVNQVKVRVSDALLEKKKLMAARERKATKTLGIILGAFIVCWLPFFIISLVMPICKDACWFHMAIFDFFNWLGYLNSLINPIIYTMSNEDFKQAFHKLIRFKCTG

5-HT receptor = experiment: Ligand activity of modified LSAL peptides on the 5-HT receptor; assay type: binding
5-HT1B/1D receptors [5] = experiment: inhibition of [3H]5-HT or [125I]cyanopindolol binding to 5-HT1B/1D type receptors
5-HT1B/1D type receptors = experiment: Binding of [3H]5-HT or [125I]cyanopindolol to 5-HT1B/1D type receptors (short peptides)
[6] = target: β adrenergic receptors of rat brain; experiment: radioligand binding, rat brain membranes, [3H]dihydroalprenolol (3 nM) + 5-HT, 1 nM peptide
[7] = target: 5-HT2A receptor of rat brain (rat) (UniProt P14842); experiment: radioligand binding, rat brain membranes, [3H]DOB (5 nM), 1 nM peptide
Chain of 5-HT2A receptor of rat brain (rat) (P14842 whole entry): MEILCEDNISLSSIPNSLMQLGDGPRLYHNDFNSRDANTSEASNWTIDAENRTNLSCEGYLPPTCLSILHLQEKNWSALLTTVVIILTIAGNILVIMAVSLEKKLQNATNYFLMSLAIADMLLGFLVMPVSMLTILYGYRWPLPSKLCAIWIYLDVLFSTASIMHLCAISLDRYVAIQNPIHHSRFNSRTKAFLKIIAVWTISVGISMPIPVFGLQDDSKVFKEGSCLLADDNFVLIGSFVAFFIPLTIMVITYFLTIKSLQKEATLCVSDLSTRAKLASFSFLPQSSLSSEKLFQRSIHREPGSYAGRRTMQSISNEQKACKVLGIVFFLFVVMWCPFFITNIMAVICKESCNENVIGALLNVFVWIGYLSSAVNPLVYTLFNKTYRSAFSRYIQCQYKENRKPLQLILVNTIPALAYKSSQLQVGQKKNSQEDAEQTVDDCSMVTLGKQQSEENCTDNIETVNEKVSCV

[8] = target: opiate receptors of rat brain; experiment: radioligand binding, rat brain membranes, [3H]naloxone (2 nM), 1 nM peptide
5-HT1B/1D receptors [9] = experiment: radioligand binding, rat brain membranes, [3H]5-HT (30 nM) + 0.1 µM 8-OH-DPAT, 1 nM peptide
5-HT1B/1D receptors [10] = experiment: inhibition of [3H]5-HT binding to 5-HT1nonA sites
[11] = target: T2, 5-HT1D receptors in guinea pigs (guinea pig, UniProt Q60484 1-376); experiment: inhibition of [3H]5-HT binding to 5-HT1D receptors, guinea pig
T2 construct: Native tissue; preparation not described
T2 sequence (Q60484 whole entry): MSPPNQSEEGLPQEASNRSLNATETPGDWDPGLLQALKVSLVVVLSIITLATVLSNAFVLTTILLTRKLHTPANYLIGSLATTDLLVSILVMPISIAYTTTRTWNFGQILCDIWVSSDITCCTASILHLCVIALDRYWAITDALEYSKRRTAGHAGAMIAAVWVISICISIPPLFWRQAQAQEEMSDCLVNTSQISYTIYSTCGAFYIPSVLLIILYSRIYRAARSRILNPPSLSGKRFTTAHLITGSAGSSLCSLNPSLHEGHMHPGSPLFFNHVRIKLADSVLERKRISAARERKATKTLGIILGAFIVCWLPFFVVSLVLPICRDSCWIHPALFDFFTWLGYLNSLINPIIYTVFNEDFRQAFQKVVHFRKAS

[12] = target: 5-HT1A receptors of rat brain (rat) (UniProt P19327); experiment: radioligand binding, rat brain membranes, [3H]8-OH-DPAT (3 nM), 1 nM peptide
Chain of 5-HT1A receptors of rat brain (rat) (P19327 whole entry): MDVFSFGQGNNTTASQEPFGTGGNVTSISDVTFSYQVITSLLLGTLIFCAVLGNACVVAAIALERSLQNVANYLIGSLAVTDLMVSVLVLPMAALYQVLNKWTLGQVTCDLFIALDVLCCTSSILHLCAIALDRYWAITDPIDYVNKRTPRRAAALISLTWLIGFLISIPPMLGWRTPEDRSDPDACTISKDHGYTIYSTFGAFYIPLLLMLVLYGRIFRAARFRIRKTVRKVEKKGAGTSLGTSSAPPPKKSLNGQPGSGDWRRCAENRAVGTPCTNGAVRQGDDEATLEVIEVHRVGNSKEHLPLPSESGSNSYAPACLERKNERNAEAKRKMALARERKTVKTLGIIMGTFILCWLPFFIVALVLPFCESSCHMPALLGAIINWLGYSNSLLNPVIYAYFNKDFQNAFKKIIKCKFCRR

[13] = target: H1 histaminergic receptor of rat brain (rat) (UniProt P31390); experiment: radioligand binding, rat brain membranes, [3H]mepyramine (5 nM), 1 nM peptide
Chain of H1 histaminergic receptor of rat brain (rat) (P31390 whole entry): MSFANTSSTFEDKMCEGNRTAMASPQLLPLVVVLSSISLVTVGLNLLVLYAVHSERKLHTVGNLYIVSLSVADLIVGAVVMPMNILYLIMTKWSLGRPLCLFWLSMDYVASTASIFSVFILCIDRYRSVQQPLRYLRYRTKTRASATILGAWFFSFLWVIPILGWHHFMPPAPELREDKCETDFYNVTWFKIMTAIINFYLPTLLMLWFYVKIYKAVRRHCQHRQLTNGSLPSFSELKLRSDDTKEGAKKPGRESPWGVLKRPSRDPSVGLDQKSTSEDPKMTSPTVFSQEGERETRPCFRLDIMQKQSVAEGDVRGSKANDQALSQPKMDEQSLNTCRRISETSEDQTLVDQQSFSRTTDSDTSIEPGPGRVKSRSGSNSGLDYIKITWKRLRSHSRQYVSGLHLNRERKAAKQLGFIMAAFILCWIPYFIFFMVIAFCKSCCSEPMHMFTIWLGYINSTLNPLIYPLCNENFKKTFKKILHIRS

5-HT1 receptors [14] = experiment: inhibition of [3H]5-HT binding to 5-HT1 receptors, 10^-9 M peptide
[15] = target: α1 adrenergic receptors of rat brain; experiment: radioligand binding, rat brain membranes, [3H]prazosin (2 nM), 1 nM peptide
[16] = target: T3, 5-HT1D receptors of human brain (human, UniProt P28221 1-377); experiment: inhibition of [3H]5-HT binding to 5-HT1D receptors, human brain
T3 construct: whole, on cells; Native tissue; preparation not described
T3 sequence (P28221 whole entry): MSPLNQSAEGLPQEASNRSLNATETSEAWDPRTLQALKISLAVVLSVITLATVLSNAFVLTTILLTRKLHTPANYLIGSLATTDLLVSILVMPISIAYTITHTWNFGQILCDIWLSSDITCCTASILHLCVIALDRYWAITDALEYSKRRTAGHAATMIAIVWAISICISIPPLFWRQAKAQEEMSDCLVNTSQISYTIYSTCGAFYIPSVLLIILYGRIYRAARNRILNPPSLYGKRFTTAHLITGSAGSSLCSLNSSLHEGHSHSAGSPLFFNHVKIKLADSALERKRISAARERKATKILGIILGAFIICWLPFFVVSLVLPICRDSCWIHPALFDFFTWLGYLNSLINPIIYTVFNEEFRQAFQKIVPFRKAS

[17] = target: 5-HT2A receptor of rat brain (rat) (UniProt P14842); experiment: radioligand binding, rat brain membranes, [3H]ketanserin (5 nM), 1 nM peptide
[18] = target: benzodiazepine receptors of rat brain; experiment: radioligand binding, rat brain membranes, [3H]flunitrazepam (3 nM), 1 nM peptide
[19] = target: 5-HT3 receptor of rat brain (rat) (UniProt P35563); experiment: radioligand binding, rat brain membranes, [3H]BRL 43694 (3 nM), 1 nM peptide
Chain of 5-HT3 receptor of rat brain (rat) (P35563 24-483): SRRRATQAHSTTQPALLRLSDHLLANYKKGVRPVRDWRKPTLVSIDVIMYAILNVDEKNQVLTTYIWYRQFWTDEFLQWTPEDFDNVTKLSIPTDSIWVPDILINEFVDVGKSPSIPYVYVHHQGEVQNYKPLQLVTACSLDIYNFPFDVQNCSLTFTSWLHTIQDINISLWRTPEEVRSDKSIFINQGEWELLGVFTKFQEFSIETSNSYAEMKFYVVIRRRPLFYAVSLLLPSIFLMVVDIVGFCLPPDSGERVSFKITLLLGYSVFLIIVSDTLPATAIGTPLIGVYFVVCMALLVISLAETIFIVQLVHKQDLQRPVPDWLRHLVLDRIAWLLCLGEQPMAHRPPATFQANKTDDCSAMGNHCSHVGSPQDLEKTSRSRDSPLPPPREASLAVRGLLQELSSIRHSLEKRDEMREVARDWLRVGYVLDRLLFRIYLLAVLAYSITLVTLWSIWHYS

5-HT1B/1D receptors [20] = experiment: cell-based or functional assay
[21] = target: D2 dopaminergic receptor of rat brain (rat) (UniProt P61169); experiment: radioligand binding, rat brain membranes, [3H]epiperone (2 nM) + 10 µM 5-HT, 1 nM peptide
Chain of D2 dopaminergic receptor of rat brain (rat) (P61169 whole entry): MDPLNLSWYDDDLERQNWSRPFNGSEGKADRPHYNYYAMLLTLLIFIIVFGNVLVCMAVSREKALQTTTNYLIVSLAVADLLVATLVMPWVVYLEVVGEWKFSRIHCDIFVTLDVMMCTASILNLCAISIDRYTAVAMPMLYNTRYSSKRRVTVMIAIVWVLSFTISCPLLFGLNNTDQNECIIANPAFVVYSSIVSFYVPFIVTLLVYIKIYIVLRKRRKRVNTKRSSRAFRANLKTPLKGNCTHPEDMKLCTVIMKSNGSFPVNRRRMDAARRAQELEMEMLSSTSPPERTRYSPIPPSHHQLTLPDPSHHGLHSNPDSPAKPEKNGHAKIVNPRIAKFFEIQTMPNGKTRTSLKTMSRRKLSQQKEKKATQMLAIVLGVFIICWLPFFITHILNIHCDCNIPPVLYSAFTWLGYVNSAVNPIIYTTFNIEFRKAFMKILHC

5-HT1EFC = experiment: radioligand binding, rat brain membranes, [3H]5-HT (30 nM) + 20 nM 5-CT, 1 nM peptide
5-HT1 receptors [22] = experiment: inhibition of [3H]5-HT binding to 5-HT1 receptors
[23] = target: T1, 5-HT1B receptor of rat brain; experiment: inhibition of [125I]cyanopindolol binding, rat cerebral tissue homogenates
[24] = target: muscarinic receptors of rat brain; experiment: radioligand binding, rat brain membranes, [3H]quinuclidinyl benzilate (3 nM), 1 nM peptide

Question: Which results are given for `CC(C)C[C@H](N)C(=O)O` [LEU]?
Answer: RELATIVE POTENCY, Receptors 5-HT1B/D ([125I]-cyanopindolol) (5-HT1B/D receptors [1]): 0 ± 2 percentage of the LSAL effect; RELATIVE POTENCY, Receptors 5-HT1B/D ([3H]5-HT) (5-HT1B/D receptors [2]): 2 ± 9 percentage of the LSAL effect

Question: How did the “activity in the forced swimming test compared with the peptide” value (mouse) turn out when `CN1Cc2c(N)cccc2C(c2ccccc2)C1` (stereo not shown) [nomifensine] was run?
Answer: Its value is “much more effective than the peptide”.

Question: With LEU-SER-ALA-LEU-NH2 (peptide) as the molecule, how does the relative potency (% of the LSAL effect) (% of the LSAL effect) (5-HT1B/1D receptors [3]) read?
Answer: Its relative potency (% of the LSAL effect) (% of the LSAL effect) is 83.3.

Question: For Ala-Leu-Leu-Ser (peptide), which relative potency (% of the LSAL effect) (% of the LSAL effect) [4] is on record?
Answer: The relative potency (% of the LSAL effect) (% of the LSAL effect) was 23.6.

Question: And the relative potency (% of the LSAL effect) (% of the LSAL effect) (5-HT1B/1D receptors [3])?
Answer: The relative potency (% of the LSAL effect) (% of the LSAL effect) was 10.

Question: SER-LEU (peptide) was tested. Which relative potency (% of the LSAL effect) (% of the LSAL effect) (5-HT1B/1D receptors [3]) did it give?
Answer: The relative potency (% of the LSAL effect) (% of the LSAL effect) was 4.

Question: How did the relative potency (% of the LSAL effect) (% of the LSAL effect) (5-HT1B/1D receptors [3]) turn out when β-ALA-LEU (peptide) was run?
Answer: Its relative potency (% of the LSAL effect) (% of the LSAL effect) is 0.

Question: LSALGGGY was tested. Which “ligand activity on the 5-HT receptor” value (5-HT receptor) did it give?
Answer: The value was “still having a substantial activity”.

Question: What about the “RELATIVE POTENCY, Receptors 5-HT1B/D ([3H]5-HT)” value (shortened to “RELATIVE POTENCY … ([3H]5-HT)”) (5-HT1B/D receptors [2]) of the same molecule?
Answer: The value was 80.9 ± 9.5 percentage of the LSAL effect.

Question: Which results are given for Ala-Leu (peptide)?
Answer: relative potency (% of the LSAL effect) (% of the LSAL effect) [4]: 61.5; relative potency (% of the LSAL effect) (% of the LSAL effect) (5-HT1B/1D receptors [3]): 50; IC50 (5-HT1B/1D receptors [5]): 1000 nM

Question: With Leu-Ser-Ala-Leu-NH2 as the molecule, how does the “RELATIVE POTENCY … ([3H]5-HT)” value (5-HT1B/D receptors [2]) read?
Answer: The value was 83.3 ± 16 percentage of the LSAL effect.

Question: Which “RELATIVE POTENCY, Receptors 5-HT1B/D ([125I]-cyanopindolol)” value (“RELATIVE POTENCY … ([125I]-cyanopindolol)” for short) (5-HT1B/D receptors [1]) does the source give for `C[C@H](N)C(=O)O` [ALA] here?
Answer: Its value is 1.7 ± 1.68 percentage of the LSAL effect.

Question: And the “RELATIVE POTENCY … ([3H]5-HT)” value (5-HT1B/D receptors [2])?
Answer: Its value is 0 ± 4 percentage of the LSAL effect.

Question: Which relative potency (% of the LSAL effect) (% of the LSAL effect) (5-HT1B/1D receptors [3]) does the source give for AC-LEU-SER-ALA-LEU (peptide) here?
Answer: The relative potency (% of the LSAL effect) (% of the LSAL effect) was 26.7.

Question: With `N[C@@H](CO)C(=O)O` [SER] as the molecule, how does the “RELATIVE POTENCY … ([125I]-cyanopindolol)” value (5-HT1B/D receptors [1]) read?
Answer: The value was 0 ± 1.7 percentage of the LSAL effect.

Question: What about the “RELATIVE POTENCY … ([3H]5-HT)” value (5-HT1B/D receptors [2]) of the same molecule?
Answer: The value was 0 ± 5 percentage of the LSAL effect.

Question: Which results are given for LEU-ALA (peptide)?
Answer: relative potency (% of the LSAL effect) (% of the LSAL effect) [4]: 1.7; relative potency (% of the LSAL effect) (% of the LSAL effect) (5-HT1B/1D receptors [3]): 1

Question: Ala-Leu-Ser (ALS) was tested. Which “RELATIVE POTENCY … ([125I]-cyanopindolol)” value (5-HT1B/D receptors [1]) did it give?
Answer: Its value is 33.8 ± 10 percentage of the LSAL effect.

Question: And the “RELATIVE POTENCY … ([3H]5-HT)” value (5-HT1B/D receptors [2])?
Answer: The value was 28 ± 10 percentage of the LSAL effect.

Question: And the IC50 (5-HT1B/1D type receptors)?
Answer: The IC50 was 1000 nM.

Question: Which “RELATIVE POTENCY … ([125I]-cyanopindolol)” value (5-HT1B/D receptors [1]) does the source give for “Ala-Leu-Leu-Ser (ALLS; printed: ALA-LEU-LEU-SER) [comparison peptide]” here?
Answer: Its value is 23.6 ± 10.6 percentage of the LSAL effect.

Question: And the “RELATIVE POTENCY … ([3H]5-HT)” value (5-HT1B/D receptors [2])?
Answer: The value was 10 ± 15 percentage of the LSAL effect.

Question: And the “activity on binding to the 5-HT1B/1D type receptors” value (5-HT1B/1D type receptors)?
Answer: The value was “inactive”.

Question: For Leu-Ser (peptide), which relative potency (% of the LSAL effect) (% of the LSAL effect) [4] is on record?
Answer: Its relative potency (% of the LSAL effect) (% of the LSAL effect) is 53.8.

Question: What about the relative potency (% of the LSAL effect) (% of the LSAL effect) (5-HT1B/1D receptors [3]) of the same molecule?
Answer: Its relative potency (% of the LSAL effect) (% of the LSAL effect) is 45.7.

Question: And the IC50 (5-HT1B/1D receptors [5])?
Answer: The IC50 was 10000 nM.

Question: With β-ALA-DL-LEU (peptide) as the molecule, how does the relative potency (% of the LSAL effect) (% of the LSAL effect) (5-HT1B/1D receptors [3]) read?
Answer: Its relative potency (% of the LSAL effect) (% of the LSAL effect) is 2.

Question: Ala-Leu-Ser (peptide) was tested. Which relative potency (% of the LSAL effect) (% of the LSAL effect) [4] did it give?
Answer: Its relative potency (% of the LSAL effect) (% of the LSAL effect) is 33.8.

Question: And the relative potency (% of the LSAL effect) (% of the LSAL effect) (5-HT1B/1D receptors [3])?
Answer: Its relative potency (% of the LSAL effect) (% of the LSAL effect) is 28.

Question: What about the IC50 (5-HT1B/1D receptors [5]) of the same molecule?
Answer: The IC50 was 1000 nM.

Question: How did the “RELATIVE POTENCY … ([3H]5-HT)” value (5-HT1B/D receptors [2]) turn out when AC-LEU-SER-ALA-LEU was run?
Answer: Its value is 26.7 ± 10 percentage of the LSAL effect.

Question: How did the relative potency (% of the LSAL effect) (% of the LSAL effect) (5-HT1B/1D receptors [3]) turn out when D-ALA-LEU (peptide) was run?
Answer: The relative potency (% of the LSAL effect) (% of the LSAL effect) was 0.

Question: What does the source list for LSAL (also called LSAL; the peptide) [Leu-Ser-Ala-Leu]?
Answer: inhibitory effect as % of the control (% of the control) [6]: 10; inhibitory effect as % of the control (% of the control) [7]: 2; inhibitory effect as % of the control (% of the control) [8]: 10; inhibitory effect as % of the control (% of the control) (5-HT1B/1D receptors [9]): 75; IC50 (5-HT1B/1D receptors [10]): 0.01 nM; IC50 [11]: 0.01 nM; inhibitory effect as % of the control (% of the control) [12]: 0; inhibitory effect as % of the control (% of the control) [13]: 10; maximum inhibitory effect (5-HT1 receptors [14]): 30 to 50%; inhibitory effect as % of the control (% of the control) [15]: 5; IC50 [16]: 0.01 nM; relative potency (% of the LSAL effect) (% of the LSAL effect) (5-HT1B/1D receptors [3]): 100; inhibitory effect as % of the control (% of the control) [17]: 10; inhibitory effect as % of the control (% of the control) [18]: 2; inhibitory effect as % of the control (% of the control) [19]: 0; K+-induced liberation of [3H]5-HT from rat brain hippocampus synaptosomes, apparent IC50 (5-HT1B/1D receptors [20]): 0.01 nM; inhibitory effect as % of the control (% of the control) [21]: 2; inhibitory effect as % of the control (% of the control) (5-HT1EFC): 0; IC50 (5-HT1 receptors [22]): 0.01 nM; IC50 [23]: 0.01 nM; inhibitory effect as % of the control (% of the control) [24]: 0

Question: How did the relative potency (% of the LSAL effect) (% of the LSAL effect) (5-HT1B/1D receptors [3]) turn out when LSALGGGY [Leu-Ser-Ala-Leu-Gly-Gly-Gly-Tyr] was run?
Answer: Its relative potency (% of the LSAL effect) (% of the LSAL effect) is 80.9.
